US20250368707A1 (UNIVERSITY OF MIAMI, published 2025)

Molecular target: the molecule itself
Test: SEC-MALS under native conditions in PBS; self-association (non-covalent dimer)

B1: mouse IL-2-10/CD25 (mIL2-linker-CD25-linker-IL10) (other)
chain: APTSSPTSSPTSSSTAEAQQQQQQQQHLEQLLMDLQELLSRMENYRNLKLPRMLTFKFYLPKQATELKDLQCLEDELGPLRHVLDLTQSKSFQLEDAENFISNIRVTVVKLKGSDNTFECQFDDESATVVDFLRRWIAFCQSIISTSPQGGGSGGGSGGGSELCLYDPPEVPNATFKALSYKNGTILNCECKRGFRRLKELVYMRCLGNSWSSNCQCTSNSHDKSRKQVTAQLEHQKEQQTTTDMQKPTQSMHQENLTGHCREPPPWKHEDSKRIYHFVEGQSVHYECIPGYKALQRGPAISICKMKCGKTGWTQPQLTCVDEREHHRFLASEESQGSRNSSPESETSCPITTTDFPQPTETTAMTETFVLTMEYKGGGSGGGSGGGSSRGQYSREDNNCTHFPVGQSHMLLELRTAFSQVKTFFQTKDQLDNILLTDSLMQDFKGYLGCQALSEMIQFYLVEVMPQAEKHGPEIKEHLNSLGEKLKTLRMRLRRCHRFLPCENKSKAVEQVKSDFNKLQDQGVYKAMNEFDIFINCIEAYMMIKMKSGGHHHHHH
notes: Under native conditions it is predominately a non-covalent dimer; also called mIL-2-10/CD25; mIL2-10/CD25
binding result: binds
